Experiment: soluble on expression in E. coli; label from the status in PepcDB or PDB records

Sequence	soluble on expression in E. coli
MTSSDSNVDPGLGIAVDLGTTTLAASLVDLSSGERLASAGSLNPQREFGADVVSRLDAACRSGEALQRMAALVREELYRLAARLLDSAGEARDRLRMVAVAGNPAMEHLLLGLPVVRLAYPPYRPLFSTSTHISAADLGWDLSGRVALFPLPGGFVGGDTVAFLFGVPDVCAPCPGPRLFLDMGTNGEMVLQCGDVLLGTSAAAGPAFEGGGLACGMAALPGAVNGIIRDGDRVRVTTIGGGQPLGICGSAVLDTVALLLEEGLLDSTGRLLPPEEIASPVGARMGTVGGEPAFILHRDAARTIYLSQGDIRQVQLAKGAIRAGMEVLCERARIRCEDIEEVVLTGSFGAVLSPRSLKFIGIFTEKMVQTTRFVREGALAGAERALTAPEGFEAVDRLARALRVIPLSGTPAFEKHFLKHIDFPSRLEHHHHHH	soluble
MAHHHHHHMPSGDAMIPRVCRTFSDAFASDEATAKEQGKKYWISRVLGSGATGTVLCAKRRSDGQSFAVKVVEMEGMSEADKNRAQAEVQCLLNCDFFSILKCHEDFAKKDPADEENVLMVALVLDYANAGDLRQEIKNRAKAARAFREHEAGLLFIQVLLAIHHVHSRHMIHRDIKTANILLCSNGLVKLGDFGFSKMYSATVSGDVGKTFCGTPYYVAPEIWRRKPYSKKADIFSLGVLLYELLTLKRPFDGENMQEVMQKALAGRYDPLPPTISPEMTEVVTSLLCGDPHARPSSSKLLNMPICKLFVSGLLEIVQTQPSFAGPLRDTISTHIQSVKQSLKEERRVTVRQMEESQSAAAASTTILEGATPMGSVGDLTLYEGIVKKQSGDLAWKRRYLCIRGALEEGERLDVGRMPKFKSLDLVLAVSKETMRQQCITTPFSELEDVFPVASKYTGSNAQHVFAVAFKTGRRLLFQARGDPERDAWMQKIQQTLGIDEAD	soluble
MSLVRQLIGRTLSGTVTMCAGPFRSVLNMLHRPQWETAMIAPLPAVDMRVICAGHVNWDVTLHVDHLPKPDGEGRITDRSQSSGGSASNAAVALAGLDADPLVLGSVGRDDHGTMARRELAATGVETLLIESDEATAVKYLIVDENGDVAVLGNDGANEAFNASDLPAETLAEADHLHLTGQNPTTAATLARDAAAADVPVSFDPGRRLPYRDYSSVLSHAEILFCNDREADHARDSGLFETVPTVVVKHGDCGATAHIGDQTVTNAGYPIESVDTAGAGDAFAAGYLLASAQETDPERALAVANACGALAAQSSGARTTLDWESVWELVDSGQEGHHHHHH	soluble
MSLASEILPDEFLELFKDLKKPPKKLHYKGNLSLLKQDKIAIIGSRRMSVYTKNCVFSLASMLKNAHLCVVSGGALGVDITASMAAMPNTIGIFANGLDQIYPRTNEKIIKQIYENALALSEYEDDYLPKNYDFLLRNRLVIALSKAVVVAQADIKSGSMQSAKLALELNKPLYVLPQRLGESTATNLLLKENKAKLICDFKEFVSEFASIDMNQDEFLEFCKKGVSVDEALKIYGQKVYEYELEGKISIEGLFIRVLAEGHHHHHH	soluble
MSLKIIIAPAKIMKLDRDSFPVQSTPEFLKKTRILEKFLKSRTRDQLETLWHASDKVVEQSLFQLKNMDLDTNLTPAILAFSGIQYQYMAPDLFTQPALDYIQKNLRILSGFYGMLRPFDGICPYRLELNTKMVGFRDYSLYHFWDEDIANSLFKEDQVVINLASKQYMRLVKPYLNSARRMITVDFQELKNDKWKTVGVHAKMARGEMVRFMAEKQIKNPADLRDFHDFDFQFVPEVSSDDHYIFRTDFDFTRHEGHHHHHH	soluble
MSLSKRNKPQESKEFGFQALKINGTYVSTDIMKEERNKFFEKYKRNADVLRMNDHERNDMLLDQVIERLLLEDYVNNKSGVTATDSEVEDYINRFIKPRYGDSLGTFMSSQGYTNEEEMKAGIKEYILKHKALYKAAKEKNVTLTEQELDEGYEKHKIQNKKVDIRHIFISSQERGKEEAKKLADEIYNRLKNNEDFETLAKQYSDDEKTKESGGVITELRAGFNEAVFDNAVFTAEAGQLLEPIEVARGYEIVYVDKVTEGHHHHHH	soluble
MAHHHHHHMAVESRSRVTSKLVKAHRAMLNSVTQEDLKVDRLPGADYPNPSKKYSSRTEFRDKTDYIMYNPRPRDEPSSENPVSVSPLLCELAAARSRIHFNPTETTIGIVTCGGICPGLNDVIRSITLTGINVYNVKRVIGFRFGYWGLSKKGSQTAIELHRGRVTNIHHYGGTILGSSRGPQDPKEMVDTLERLGVNILFTVGGDGTQRGALVISQEAKRRGVDISVFGVPKTIDNDLSFSHRTFGFQTAVEKAVQAIRAAYAEAVSANYGVGVVKLMGRDSGFIAAQAAVASAQANICLVPENPISEQEVMSLLERRFCHSRSCVIIVAEGFGQDWGRGSGGYDASGNKKLIDIGVILTEKVKAFLKANKSRYPDSTVKYIDPSYMIRACPPSANDALFCATLATLAVHEAMAGATGCIIAMRHNNYILVPIKVATSVRRVLDLRGQLWRQVREITVDLGSDVRLARKLEIRRELEAINRNRDRLHEELAKL	not soluble
MLHEIPKEEILEKLKNIGAKKVLIQSPEGLRREAEELAEFLEKNEIEVILHGEINYGACDPADHEARLLGCDALIHLGHSFMMLSLEVPTIFVPAFAKVNVVEALKKNLHEIKKLGKKIIVTTTAQHIHQLERAIEYLKSQGFEPVVGRGDNRVSWPSQVLGCNFSVAKVEGDGILFIGSGTFHPLGLALATGKRVLAVNPYSGDCQWINELAERFIRKRWAQIAKAMDAKRFGVVISTKRGQLRLNEAKRIIKLLKDHGREAKLIAMNDISYSKLEGFSFDAYVIVACPRVPIDDYENWRKPVLTPREVEILLGLREEYIFDEIPGGVREKDEPLGISLHSTRLEHHHHHH	not soluble
GSRNHCPHLDSVGEITKEDLIQKSLGTCQDCKVQGPNLWACLENRCSYVGCGESQVDHSTIHSQETKHYLTVNLTTLRVWCYACSKEVFLDRKLGTQ	soluble
MRYTDSRKLTPETDANHKTASPQPIRRISSQTLLGPDGKLIIDHDGQEYLLRKTQAGKLLLTK	soluble
MGSDKIHHHHHHMQFLYNKQAGEEFIQLQGENFNHLKVRRVKENSELNLRNLQDNFLYNYTITNLTRNSCTLKFLNKKSQNIKQSELNLALAIIDIKILEKTLPFLNELGVKKLHLVFTNFSQRNFKIDLERFEKIIISSCEQCGRNTKMDLIIHQSTQEFVQKFPNAIMVDFQGEQQSHFDEKELYFIGPEGGFNNDERLLFNRKISLKSSNILKSQTAIIAIASKILL	not soluble
MGSDKIHHHHHHLAVMPFSPDQIIRPEILALSAYHVPPACGMIKLDAMENPYPLPPELRDEIAKLAGETPVNRYPDPDAAALKAALREALSIPDGMDIMLGNGSDEIIQIIALACGKPGAVLMSVEPAFVMFRMIATFASMNYVGVPLHPDFSLDAEAMLAAIARYQPAVIFIAYPNNPTGNLFDAVEISRIIDAAPGVVVVDEAYHAFADASFMDKLAHHPNLLLMRTLSKLGMAGLRLGLLAGKPEWLRQLEKLRLPYNVGIVTQRIAEKLLQHRDVLLQQAAAIKLERSSMSRRLAELEGIEVFPTDANFILFRLNQDHKATQVFQELKQRGILVKNLDGAHPLLKNCLRVTVGMPDENAQFLEVLQTLLVKVEAKA	not soluble
MGSDKIHHHHHHKAPLDEIADDSFWSDETLVKYYVNDLYSEISVDGLQLQENRSDNSVSAQRDKYRASWFKFNYDMVSASDPQDDDVWEDYYVKVRKCNRFFERIGTSTIEESEKSRLTGEVHFLRAMFYFEMVKRYGGVILLDKVLTMEDNWEIPRSSEKECYDFILEDLKKATEMLPASYGSREKGRATKGAAYALKSRVELYDKRYEDVIKSCAEVYKLGYELVDGTTPEKYRSIWWTTNKDNKEIIFDVQYKSPDVYNNMMVCNMVTYINDKYGDRGWGGLGPTQELIDAFEMADGTPATQYSQAPADQVFDINTCGIYEGREPRFYANIVFHGSQIFFNADKGAVTVDRYLMDTPDKGDGSLTGYNVWKWIDYDNYNYPYAGAGSPDFSTNWIILRYAEIYLNDAEARLETGDVEGARKAVNMIRQRVGLPDLTESDPEKLRELIRKERRIEFAFEEQRFYDVRRWKIGPETQTTLHGVRFVSPTEFKVTKTDIRTWNDRLYLTPVPHDEIVRSSVLKQNLGY	not soluble

— the DeepSol protein solubility set
